The nature of data set [1]: Maximum tolerated dose / tolerability study. The note with it: healthy, non-tumor bearing female NSG mice.
Description: Animals were monitored for signs of toxicity and weighed twice weekly. […] The second and third doses were administered 21 days following the previous dose.
Two separate MTD experiments were undertaken. […] A second experiment interrogated lower doses.
Mouse body weight and behavior were monitored. […] The second and third doses were administered 21 days following the previous dose.
The subject of the next data set is OVCAR3 xenografts. The data set is described as follows: 177Lu FOLR1 radioligand therapy in OVCAR3 xenograft model. The format is in vivo, mouse. How it is done: Water and food were provided ad libitum. […] Tumor growth was monitored by caliper measurements.
OVCAR3 tumor bearing mice were used to study FOLR1-directed radioligand therapy (RLT) for treatment of ovarian cancer. Animals were administered a single dose of heterobiligand (vehicle control) or 111, 37, 18.5, 9.25, or 3.7 MBq [^177Lu]DOTA-labeled heterobiligand. Mice received the dose intravenously (i.v.) via the tail vein. To monitor the effect of the RLT, tumor size measurements were taken twice weekly and body weights were measured.
The engraftment was allowed to expand until palpable tumor sizes ranging in size from 218-384 mm^3 were detected. […] These observed effects were consistant with radiation overdosing. […] The best response was observed using 9.25 MBq Lu-177 Heterobiligand (compound #2809).
Single dose treatments at 18.5 MBq/nmol specific activity. OVCAR3 mouse model was used. 10^7 cell tumors were implanted in the mice one month before administration of ^177Lu-#6305. Five mice each were administered Cold #6305, 9.25 MBq Lu177-#6305, and 14.8 MBq Lu177-#6305, and two mice were administered 29.6 MBq Lu177-#6305. Tumor growth and body weight were then monitored.
Female NSG mice were implanted subcutaneously with OVCAR3 cells. Once tumors reached volumes of 200 mm^3, the animals were treated with 177-Lu 7327. Three treatment arms of 9.25 MBq, 14.8 MBq, and 29.6 MBq were studied.
Female NSG mice were implanted subcutaneously with human OVCAR3 (FOLR+) ovarian cancer cells. Once tumors reached volumes of 200 mm^3, the animals were treated with Indi ^177Lu-7327. One treatment arm of 74 MBq and a control group of 0 MBq were studied (FIGS. 41 and 38A). […] The second dose was administered 21 days following the first dose. Statistically significant differential between treated and control was reached 24 days post-injection (three days following the second dose) for the 74 MBq arm. P values (* for p≤0.05, ** for p≤0.01) were determined by ordinary one-way ANOVA with Tukey's multiple comparisons test.

A further data set has as its target human recombinant NEP (Homo sapiens, UniProt P08473). The format is biochemical. How it is done:
In order to test the susceptibility of GFK and MVK linkers to NEP-mediated cleavage, the peptide (Folate-hshta-Lys(MPBA)-Gly-Phe-Lys(DOTA) (SEQ ID NO:6)) was incubated with human recombinant NEP and analyzed the solution for the presence of cleaved adducts. MALDI was utilized to monitor the cleavage of a PCC heterobiligand that contains a NEP protease recognizable sequence (G-F-K). The PCC concentration was constant and the NEP concentration was titrated down from 10 nM to 1 nM, 0.1 nM, 0.01 nM, and no NEP. The NEP-mediated cleaved adduct was identified by mass. 10 μM PCC containing the GFK linker was combined with varying amounts of NEP. […] Below 0.1 nM no cleavage was observed. • Folate-hshta-Lys(MPBA)-Gly-Phe-Lys(DOTA) (SEQ ID NO:6) • Molecular weight 2231.42
The NEP-mediated cleavage was also monitored by HPLC. In agreement with the MALDI spectra, the HPLC chromatograms show depletion of the parent brush-border heterobiligand (retention time 17.1 minutes), dose-dependent on the amount of NEP spiked into the sample (10 nM, 1 nM, 0.1 nM, 0.01 nM, and no NEP). An appearance of a new peak (retention time 16.5 minutes) in concert with the depletion of the starting material is presumed to be the cleaved folate-containing peptide.
In order to test the specificity of NEP, a non-cleavable linker (PEG3) was also assayed.
To reduce the radioactive dose to the kidney, Indi ^177Lu-7327 was constructed to incorporate a GFK linker that is susceptible to cleavage by enzymes found predominately in the kidney's brush border. These enzymes cleave off the radionuclide-chelator complex, which is quickly eliminated by the kidney for excretion in the urine. The zinc metalloprotease neprilysin (NEP) is expressed with high abundance in the kidney. […] To confirm NEP-mediated cleavage of the GFK linker in Indi 7327, the peptide was incubated with recombinant human NEP at 37° C. for 1 h and analyzed by matrix-assisted laser desorption/ionization mass spectrometry (MALDI-MS) for the evolution of cleaved adducts (FIG. 42). […] The expected cleaved adduct (mass: 1283.16 m/z) appears in the samples containing 10, 1.0, and 0.1 nM NEP. […] Below 0.1 nM NEP, no cleavage was observed. In addition to confirming the selectivity of NEP for the GFK linker, it is also important to note that the remaining portions of the Indi 7327 were impervious to the enzyme.

Data set [2] is described as follows: Plasma protein binding (equilibrium dialysis), human. The format is in vitro ADME. The protocol: (§1) HTD 96 a/b regenerated cellulose membrane strips with mass cutoff of 12-14 kDa were soaked in ultra-pure water at room temperature for 1 hour. Each swelled membrane was then soaked in 20:80 ethanol:water for 20 minutes.
(§2) Just prior to the experiment, the membranes were re-soaked in ultra-pure water. Plasma was prepared by thawing under cold water. The plasma was centrifuged to remove any clots and pH was adjusted to 7.0-8.0. Test articles and control compounds were diluted to 2 μM. The dialysis device was loaded by transferring 150 μL of the test article (in triplicate) to the donor side. The dialysis device was placed in a humidified incubator at 37° C. with 5% CO2 in a shaking platform that rotated slowly for 4 hours. After incubation, 50 μL of the supernatant was taken from both sides and analyzed by LC-MS/MS.
(§3) To optimize the albumin binding potential of the heterobiligand, a plasma protein binding (PPB) experiment was performed. This experiment measured the amount of test article bound and free after equilibrating with plasma. Compound #6305 (folate-hshta-Lys(MPBA)-Gly-Phe-Lys(DOTA) (SEQ ID NO:6)), which contains the MPBA albumin binder, was 96.26% bound to mouse plasma and 98.34% bound to human plasma. […] In mouse and human plasmas 99.6% and 99.5% was bound, respectively.
A general note: In equilibrium dialysis only unbound substance equilibrates across the membrane.

Data set [3] in a line: Plasma protein binding (equilibrium dialysis), mouse. The format is in vitro ADME, CD-1 mouse. How it is done: as §1, §2, §3
The target of a further data set is T1, FOLR1 (Homo sapiens, UniProt P15328).
T1 construct: His; purchased SinoBiological 11241-H08H
T1 sequence (P15328 25-234): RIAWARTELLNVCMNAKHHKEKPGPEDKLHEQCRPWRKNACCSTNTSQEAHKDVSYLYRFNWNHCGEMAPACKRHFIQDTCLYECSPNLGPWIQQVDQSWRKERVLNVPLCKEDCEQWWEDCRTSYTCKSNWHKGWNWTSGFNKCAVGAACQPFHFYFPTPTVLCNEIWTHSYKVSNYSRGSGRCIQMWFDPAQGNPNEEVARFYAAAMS
The data set can be described thus: ELISA assay of FOLR1 binding. From the text: FIG. 5 is a diagram of ELISA assay of FOLR1 binding of heterobiligands.
Nonclinical studies were first conducted with Folate-hshta-PEG10-PEG10-K(Biotin), where Folate-hshta is the targeting heterobiligand, PEG10 is a deca(ethylene glycol) linker, and K(Biotin) is the detection label.
Background: An ELISA detects its analyte on a solid surface through an enzyme-linked reagent.

The mark [4] stands for this setting: albumin binder / DOTA tagged biotin-labeled heterobiligands, read-out: EC50.

This note sets out measurements from US11733246B2, “Compositions, imaging, and therapeutic methods targeting folate receptor 1 (FOLR1)” (Indi Molecular, Inc., priority 2020, dated 2023).

Read-outs that look alike come from different tables or passages of the source. Numbered stars: 1 amine (or outer) side, 2 acyl side, 3 side chain; on linkers, the order of the positions; unused ones are H or OH. Bridge positions count the residues as written; N and C are the ends. Square brackets hold non-standard residues; d marks the D form. Triazole bridges read from a SMILES are 1,4-linked. Side chains are listed from the residue outwards. Peptide text beside a SMILES is read from it. * marks the point of attachment. DOTA = O=C(O)CN1CCN(CC(=O)O)CCN(CC(=O)*)CCN(CC(=O)O)CC1; Pteroyl = Nc1nc2ncc(CNc3ccc(C(=O)*)cc3)nc2c(=O)[nH]1; Biotin = O=C1N[C@H]2[C@H](CS[C@H]2CCCCC(=O)*)N1; Butanoyl(4-(4-I-phenyl)) = O=C(CCCc1ccc(I)cc1)*; PEG10 = NCCOCCOCCOCCOCCOCCOCCOCCOCCOCCOCCC(=O)O; Butanoyl(4-(4-MePh)) = Cc1ccc(CCCC(=O)*)cc1; Lys(N3) = [N-]=[N+]=NCCCC[C@H](N)C(=O)O; γGlu = O=C(O)[C@H](CCC(=O)[*:2])N[*:1]; AEEEA = NCCOCCOCCOCC(=O)O; Pra = C#CC[C@H](N)C(=O)O

Sequence of human recombinant NEP (P08473 whole entry): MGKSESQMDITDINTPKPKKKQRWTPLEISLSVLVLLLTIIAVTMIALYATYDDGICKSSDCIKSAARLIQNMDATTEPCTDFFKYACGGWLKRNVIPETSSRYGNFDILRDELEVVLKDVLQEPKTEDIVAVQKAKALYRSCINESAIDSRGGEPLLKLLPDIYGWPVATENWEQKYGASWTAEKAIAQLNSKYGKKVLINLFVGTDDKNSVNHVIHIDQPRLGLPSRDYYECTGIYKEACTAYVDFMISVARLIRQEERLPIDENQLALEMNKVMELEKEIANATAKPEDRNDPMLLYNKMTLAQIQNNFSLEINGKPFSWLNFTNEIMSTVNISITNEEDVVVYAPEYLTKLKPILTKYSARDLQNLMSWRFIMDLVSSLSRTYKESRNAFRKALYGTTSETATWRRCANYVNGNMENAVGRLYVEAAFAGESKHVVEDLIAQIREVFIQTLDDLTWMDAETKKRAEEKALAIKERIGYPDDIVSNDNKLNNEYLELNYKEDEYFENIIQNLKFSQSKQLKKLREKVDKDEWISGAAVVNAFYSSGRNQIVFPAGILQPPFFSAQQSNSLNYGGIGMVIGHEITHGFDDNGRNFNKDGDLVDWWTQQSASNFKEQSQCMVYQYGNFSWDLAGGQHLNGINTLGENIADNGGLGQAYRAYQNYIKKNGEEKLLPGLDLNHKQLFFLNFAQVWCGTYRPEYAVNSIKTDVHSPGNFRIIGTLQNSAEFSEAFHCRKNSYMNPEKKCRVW

Take `C[C@H](O)[C@H]1NC(=O)[C@@H](Cc2cnc[nH]2)NC(=O)[C@@H](CO)NC(=O)[C@@H](Cc2cnc[nH]2)NC(=O)[C@@H](NC(=O)CC[C@H](NC(=O)c2ccc(NCc3cnc4nc(N)[nH]c(=O)c4n3)cc2)C(=O)O)Cc2cn(nn2)CCCC[C@@H](C(=O)NCC(=O)N[C@@H](Cc2ccccc2)C(=O)N[C@@H](CCCCNC(=O)CN2CCN(CC(=O)O)CCN(CC(=O)O)CCN(CC(=O)O)CC2)C(=O)O)NC(=O)[C@@H](C)NC1=O` [Indi ^177Lu-7327, Folate-hshta-G-F-K(^177Lu-DOTA)-OH, metal not drawn] ({Pteroyl-γGlu}-[Pra][dH][dS][dH][dT][dA][Lys(N3)]GFK(DOTA)-OH; triazole 1-7): the “radioactive dose tolerated, three treatments” value in data set [1] is listed as “up to 111 MBq”. In addition, the “loss of body weight” value in the data set with OVCAR3 xenografts (29.6 MBq, after second dose) is reported as 5-10%. For the same compound, in the data set on OVCAR3 xenografts (highest dose (29.6 MBq), after second dose), the body weight entry was “modest loss of body weight”. Also, in the data set with OVCAR3 xenografts (mouse, in vivo), the “body weights of treated mice” value is given as “normal body weights (+/−10%)” and the “tolerability of first dose” value is “well tolerated”.

With `CSCC[C@H](NC(=O)[C@H](CCCCNC(=O)CCCc1ccc(I)cc1)NC(=O)[C@@H]1CCCCn2cc(nn2)C[C@H](NC(=O)CC[C@H](NC(=O)c2ccc(NCc3cnc4nc(N)[nH]c(=O)c4n3)cc2)C(=O)O)C(=O)N[C@H](Cc2c[nH]cn2)C(=O)N[C@H](CO)C(=O)N[C@H](Cc2c[nH]cn2)C(=O)N[C@H]([C@H](C)O)C(=O)N[C@H](C)C(=O)N1)C(=O)N[C@H](C(=O)N[C@@H](CCCCNC(=O)CN1CCN(CC(=O)O)CCN(CC(=O)O)CCN(CC(=O)O)CC1)C(=O)O)C(C)C` [compound #1306, Fol-hshta-Lys(4-IPBA)-Met-Val-Lys(DOTA)] ({Pteroyl-γGlu}-[Pra][dH][dS][dH][dT][dA][Lys(N3)]K(Butanoyl(4-(4-I-phenyl)))MVK(DOTA)-OH; triazole 1-7), the “in vitro Assay Data (NEP assay)” value with human recombinant NEP is given as “Cleavage of -M-V-K-”. The recovery in data set [2] worked out at 84.8%; in data set [3] it was 82.7%.

With `Cc1ccc(CCCC(=O)NCCCC[C@H](NC(=O)COCCOCCOCCNC(=O)[C@@H]2CCCCn3cc(nn3)C[C@H](NC(=O)CC[C@H](NC(=O)c3ccc(NCc4cnc5nc(N)[nH]c(=O)c5n4)cc3)C(=O)O)C(=O)N[C@H](Cc3c[nH]cn3)C(=O)N[C@H](CO)C(=O)N[C@H](Cc3c[nH]cn3)C(=O)N[C@H]([C@H](C)O)C(=O)N[C@H](C)C(=O)N2)C(=O)NCCOCCOCCOCCOCCOCCOCCOCCOCCOCCOCCC(=O)NCCOCCOCCOCCOCCOCCOCCOCCOCCOCCOCCC(=O)N[C@@H](CCCCNC(=O)CCCC[C@@H]2SC[C@@H]3NC(=O)N[C@@H]32)C(N)=O)cc1` [Folate-hshta-MPBA] ({Pteroyl-γGlu}-[Pra][dH][dS][dH][dT][dA][Lys(N3)][AEEEA]K(Butanoyl(4-(4-MePh)))[PEG10][PEG10]K(Biotin)-NH2; triazole 1-7), the EC50 on FOLR1 (setting [4]) was 0.11 nM.

`C[C@H](O)[C@H]1NC(=O)[C@@H](Cc2ccc(O)cc2)NC(=O)[C@@H](CCCNC(=N)N)NC(=O)[C@@H](CCC(=O)O)NC(=O)[C@@H](CC(=O)O)NC(=O)[C@@H](NC(=O)[C@H](CCCCNC(=O)COCCOCCOCCNC(=O)CC[C@H](NC(=O)c2ccc(NCc3cnc4nc(N)[nH]c(=O)c4n3)cc2)C(=O)O)NC(=O)CCOCCOCCOCCOCCOCCOCCOCCOCCOCCOCCNC(=O)CCOCCOCCOCCOCCOCCOCCOCCOCCOCCOCCNC(=O)CCCC[C@@H]2SC[C@@H]3NC(=O)N[C@@H]32)Cc2cn(nn2)CCCC[C@@H](C(N)=O)NC1=O` [Lys (PEG3 -Folate)-deryt] ({Biotin-PEG10-PEG10}-K([AEEEA-γGlu-Pteroyl])[Pra][dD][dE][dR][dY][dT][Lys(N3)]-NH2; triazole 2-8) gave a 50% effective concentration (EC50) at FOLR1 (EC50, deryt heterobiligands, ELISA) of 0.16 nM.

`C[C@H](O)[C@H]1NC(=O)[C@@H](Cc2c[nH]cn2)NC(=O)[C@@H](CO)NC(=O)[C@@H](Cc2c[nH]cn2)NC(=O)[C@@H](NC(=O)CC[C@H](NC(=O)c2ccc(NCc3cnc4nc(N)[nH]c(=O)c4n3)cc2)C(=O)O)Cc2cn(nn2)CCCC[C@@H](C(=O)NCCOCCOCCOCC(=O)N[C@@H](CCCCNC(=O)CN2CCN(CC(=O)O)CCN(CC(=O)O)CCN(CC(=O)O)CC2)C(=O)NCCOCCOCCOCCOCCOCCOCCOCCOCCOCCOCCC(=O)NCCOCCOCCOCCOCCOCCOCCOCCOCCOCCOCCC(=O)N[C@@H](CCCCNC(=O)CCCC[C@@H]2SC[C@@H]3NC(=O)N[C@@H]32)C(N)=O)NC(=O)[C@@H](C)NC1=O` [Folate-hshta-DOTA] ({Pteroyl-γGlu}-[Pra][dH][dS][dH][dT][dA][Lys(N3)][AEEEA]K(DOTA)[PEG10][PEG10]K(Biotin)-NH2; triazole 1-7): on FOLR1 (setting [4]), the EC50 came to 0.098 nM.

Usually EC50 stands for the concentration that produces a half-maximal response.
